Results: patent US20260139035A1 (published 2026)

B1: 3-1 antibody (antibody, V domains shown)
VH: EVQLVQSGAEVKKPGESLKISCKGSGYIFTNYWIGWVRQMPGKGLEWMGIINPRDSDTRYSPSFQGQVTISTDKSINTAYLQWSSLKASDTAMYYCARQQGGFGDLGAYNWFDPWGQGTLVTVSS
VL: not shown
B2: 1-58 antibody (antibody, V domains shown)
VH: QVQLVQSGAEVKKPGASVRVSCKASGYSFTASYMHWVRQAPGQGLEWMAIINPGDDNTSYAQKFQGRVTLTRDTSTTTVYMELRSLRSEDTAVYYCTRSTRDYVWGNYRYTPGYYLDYWGQGTLVTVSS
VL: DIRMTQSPSSLSASVGDRVTITCRASQTISNYLNWYQQKPGKAPKLLIYAASSLQSGVPSRFSGSGSGTDFTLTISSLQPEDFATYYCQQGYITPITFGQGTRLEIK
B3: 1-44 antibody (antibody, V domains shown)
VH: EVQLVESGGGVVQPGSSLRLSCAASGFTFRSHAMHWVRQAPGKGLEGVAVIWYDGSNKYYADSVKGRFTISRDNSKNTLYLQMNSLRAEDTAVYYCAREGIAVPGNGADAFDIWGQGTMVTVSS
VL: DIQMTQSPSSLSASVGDRVTITCRASQSIGNFLNWYQQKPGKAPKLLIYAASSLQSGVPSRFSGSGSGTDFTLTISSLQPEDFATYYCQQTYSTPYTFGQGTKLEIK
B4: 4-66 antibody (antibody, V domains shown)
VH: EVQLVESGGGLVQPGGSLRLSCAASGIIVSRNYMTWVRQAPGKGLEWVSVIYSGGTTYYADSVKGRFTTSRDDSKNTLYLQMNSLRGDDTAVYYCARDPPHRRGSYWGQGTLVTVSS
VL: DILMTQSPSSLSASVGDRVTITCQASQDINKYLNWYQQKPGKAPKLLIYDASNLETGVPSRFSGSGSGTDFSFTISSLQPEDVATYYCQQSDNLPPTFGQGTNVEIK

These binders were tested against RBD of the SARS-CoV-2 spike protein (Cayman Chemical kit #502050) (UniProt P0DTC2 319-541).
With B1 the IC50 was 0.031 µg/mL.
Work on B2 yielded an IC50 of 0.028 µg/mL.
For B3, the IC50 was 0.013 µg/mL.
With B4 the IC50 was 0.015 µg/mL.
